Reference: patent US20040086495

Target: T1, phospho-BAD (recombinant BAD as GST-fusion protein, phosphorylated in vitro with PKA and [gamma-32P]ATP), Q61337
T1 chain: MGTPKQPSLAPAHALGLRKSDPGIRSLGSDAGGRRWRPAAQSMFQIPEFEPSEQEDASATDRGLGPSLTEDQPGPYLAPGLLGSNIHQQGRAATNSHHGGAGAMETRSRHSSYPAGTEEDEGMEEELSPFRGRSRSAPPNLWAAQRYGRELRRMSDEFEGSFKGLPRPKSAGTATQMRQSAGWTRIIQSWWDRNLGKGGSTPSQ

B1: PP2Cβ from bovine brain (protein phosphatase type 2C beta), recombinant, expressed in E. coli (protein)
chain: MGAFLDKPKTEKHNAHGAGNGLRYGLSSMQGWRVEMEDAHTAVVGIPHGLEDWSFFAVYDGHAGSRVANYCSTHLLEHITNNEDFRAAGKSGSALEPSVENVKNGIRTGFLKIDEYMRNFSDLRNGMDRSGSTAVGVMISPKHIYFINCGDSRAVLYRSGQVCFSTQDHKPCNPREKERIQNAGGSVMIQRVNGSLAVSRALGDYDYKCVDGKGPTEQLVSPEPEVYEILRAEEDEFIILACDGIWDVMSNEELCEFVKSRLEVSDDLENVCNWVVDTCLHKGSRDNMSIVLVCFSNAPKVSDEAMRKDSELDKYLESRVEEIMEKSGEEGMPDLAHVMRILSAENIPNLPPGGGLAGKRHVIEAVYSRLNPHRESDGGAGDLEDPW
dephosphorylation of [32P]BAD by PP2C in vitro (SDS-PAGE, autoradiography): The dephosphorylation of phospho-BAD by PP2C is dependent as well on time and concentration.
dephosphorylation of phospho-BAD sites by PP2C: Here it could be shown, that PP2C preferably dephosphorylates P-ser^155 compared to P-ser^112 and P-ser^136.
